B1: Programmed cell death protein 6 (Mus musculus), P12815 (parent)
chain: MAAYSYRPGPGGGPGPAAGAALPDQSFLWNVFQRVDKDRSGVISDNELQQALSNGTWTPFNPVTVRSIISMFDRENKAGVNFSEFTGVWKYITDWQNVFRTYDRDNSGMIDKNELKQALSGFGYRLSDQFHDILIRKFDRQGRGQIAFDDFIQGCIVLQRLTDIFRRYDTDQDGWIQVSYEQYLSMVFSIV
partner: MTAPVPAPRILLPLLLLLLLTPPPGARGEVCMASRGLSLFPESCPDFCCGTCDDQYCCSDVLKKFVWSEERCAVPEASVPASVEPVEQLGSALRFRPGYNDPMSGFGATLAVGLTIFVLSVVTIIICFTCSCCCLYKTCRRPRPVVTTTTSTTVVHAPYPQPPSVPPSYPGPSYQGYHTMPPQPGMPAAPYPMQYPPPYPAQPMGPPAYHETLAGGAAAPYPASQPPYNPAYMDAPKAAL

Variants of: B1
Conditions: with shsa5_human SHISA5, Q8N114

Row | Variant | effect of a mutation on the interaction
1 | E47D;E114D | disrupting interaction strength
